In patent publication US20220306739A1 (Janssen / Centocor, published 2022):

How the values were obtained:
[1] = target: T1, TCR with TRBC1 on Jurkat cells (human, UniProt P01850 1-176); experiment: flow cytometry on TRBC1 expressing Jurkat cells
T1 construct: whole, on cells; Only the constant domain is named; also called TRBC1 expressing Jurkat cell lines; transfected Jurkat cells
T1 TCR beta (looked up): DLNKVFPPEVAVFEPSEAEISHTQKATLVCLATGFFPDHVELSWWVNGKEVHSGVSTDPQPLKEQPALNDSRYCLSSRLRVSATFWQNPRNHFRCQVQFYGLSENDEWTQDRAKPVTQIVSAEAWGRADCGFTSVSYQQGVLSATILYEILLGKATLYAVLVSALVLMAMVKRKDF
Description: Cells were washed with wash buffer (PBS+2% FBS) and the fluorescence of stained cells was measured on Novocyte flow cytometer. Cells were visualized on forward and sideward scatter and doublets were excluded. No secondary antibody control was used to establish background fluorescence and to gate on specific population. Background value was subtracted from main samples to get specific binding value.

[2] = target: T2, TRBC2 TCR on HPB-ALL cells (human, UniProt A0A5B9 1-178); experiment: flow cytometry cell binding to HPB-ALL cells (TRBC2), signal:background ratio
T2 construct: whole, on cells; Only the constant domain is named; also called HPB-ALL cell line that endogenously expresses TRBC2 TCR
T2 TCR beta (looked up): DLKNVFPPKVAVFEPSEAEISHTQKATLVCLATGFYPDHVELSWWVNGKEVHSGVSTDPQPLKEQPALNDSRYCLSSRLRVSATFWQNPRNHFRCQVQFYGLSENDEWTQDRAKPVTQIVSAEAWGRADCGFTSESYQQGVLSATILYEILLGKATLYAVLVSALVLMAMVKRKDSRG

B1: anti-TRBC1 antibody JOVI-1 mIgG2a (TRB1B1) (antibody, V domains shown)
VH: EVRLQQSGPDLIKPGASVKMSCKASGYTFTGYVMHWVKQRPGQGLEWIGFINPYNDDIQSNERFRGKATLTSDKSSTTAYMELSSLTSEDSAVYYCARGAGYNFDGAYRFFDFWGQGTTLTVSS
VL: DVVMTQSPLSLPVSLGDQASISCRSSQRLVHSNGNTYLHWYLQKPGQSPKLLIYRVSNRFPGVPDRFSGSGSGTDFTLKISRVEAEDLGIYFCSQSTHVPYTFGGGTKLEIK
notes: Mouse IgG2a monoclonal, commercially sourced; also called mJOVI-1; mouse anti-human TRBC1 clone JOVI-1 mAb
EC50 [1]: 1 to 2 nM | binding result [2]: no binding
